The source of these data is patent publication US20240398949A1 (OSLO UNIVERSITETSSYKEHUS HF, published 2024).

One assay addresses T1, full-length HER2 (Homo sapiens (Human), UniProt P04626 23-1255).
T1 construct: Endogenous HER2 on cell lines
Description: flow cytometry on cell lines expressing full-length HER2, goat anti-rat-PE secondary. On the procedure:
Cells were washed, pelleted down and resuspended in 100 μl FACS buffer (containing phosphate-buffered saline (PBS), pH 7, 2% FBS, and 2 mM EDTA). […] Cells were washed twice, resuspended in 100 μL FACS buffer containing secondary antibody goat anti-rat-PE (0.26 μg/ml) and Fixable Viability Dye eFluor™ 780 and incubated for 30 minutes in the dark at 4° C. Cells were washed, resuspended in 200 μL FACS buffer, and analyzed on a LSR II flow cytometer (BD Biosciences, Franklin Lakes, NJ, USA). Data were analyzed with FlowJo software (v10.7.1, FlowJo LLC).

Assay [1] deals with T2, extracellular domain of p95HER2 peptide with a polyhistidine-tag in the C-terminus.
T2 construct: Used as analyte in SPR
The experiment in a line: SPR (Biacore T200, 25° C.), antibody immobilized on CM5 chip, peptide as analyte 0.6 to 2500 nM, 1:1 model. How it is done:
SPR was performed as described previously in Gomes & Andreu, Journal of Immunological Methods 259:217-230, 2002. […] The extracellular domain of p95HER2 peptide with a polyhistidine-tag in the C-terminus (SEQ ID NO: 19) was used as analyte with serial dilutions from 0.6 to 2500 nM. […] (SEQ ID NO: 19)
Kinetics of molecular interaction were processed by global curve fitting to the 1:1 bimolecular interaction model. Biacore T200 (GE Healthcare) was used to perform the experiment and all procedures were conducted at 25° C.

The target of assay [2] is T3, peptide 21 (FIGURE 3 d/e).
T3 peptide: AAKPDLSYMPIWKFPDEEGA
The experiment in a line: peptide array on cellulose membrane, double-alanine substitution series, signal intensity (area under curve), duplicate spots.

The target of assay [3] is T4, peptide 22 (FIGURE 3 d/e).
T4 peptide: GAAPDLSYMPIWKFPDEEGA
The description is as above.

The target in assay [4] is T5, peptide 23 (FIGURE 3 d/e).
T5 peptide: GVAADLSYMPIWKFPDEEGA
Described as above.

The target of assay [5] is T6, peptide 24 (FIGURE 3 d/e).
T6 peptide: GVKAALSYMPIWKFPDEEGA
The description is as above.

The target in assay [6] is T7, peptide 25 (FIGURE 3 d/e).
T7 peptide: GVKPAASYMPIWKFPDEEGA
The description is as above.

The target in assay [7] is T8, peptide 26 (FIGURE 3 d/e).
T8 peptide: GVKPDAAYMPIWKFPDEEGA
The assay is described as above.

In assay [8] the target is T9, peptide 27 (FIGURE 3 d/e).
T9 peptide: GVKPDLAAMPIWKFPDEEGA
The description is as above.

For assay [9], the target named is T10, peptide 28 (FIGURE 3 d/e).
T10 peptide: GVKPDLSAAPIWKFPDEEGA
The assay is described as above.

Assay [10] has as its target T11, peptide 29 (FIGURE 3 d/e).
T11 construct: marked MP under the bar
T11 peptide: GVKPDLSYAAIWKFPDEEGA
Described as above.

The target of assay [11] is T12, peptide 30 (FIGURE 3 d/e).
T12 construct: marked PI under the bar
T12 peptide: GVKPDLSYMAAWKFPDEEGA
The assay is described as above.

For assay [12], the target named is T13, peptide 31 (FIGURE 3 d/e).
T13 construct: marked IW under the bar
T13 peptide: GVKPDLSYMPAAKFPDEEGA
The assay is described as above.

Assay [13] concerns the target T14, peptide 32 (FIGURE 3 d/e).
T14 construct: marked WK under the bar
T14 peptide: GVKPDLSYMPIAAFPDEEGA
The description is as above.

The target in assay [14] is T15, peptide 33 (FIGURE 3 d/e).
T15 construct: marked KF under the bar
T15 peptide: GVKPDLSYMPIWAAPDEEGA
Described as above.

Assay [15] concerns the target T16, peptide 34 (FIGURE 3 d/e).
T16 construct: marked FP under the bar
T16 peptide: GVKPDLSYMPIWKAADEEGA
The description is as above.

Assay [16] concerns the target T17, peptide 35 (FIGURE 3 d/e).
T17 construct: marked PD under the bar
T17 peptide: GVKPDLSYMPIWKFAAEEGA
Described as above.

For assay [17], the target named is T18, peptide 36 (FIGURE 3 d/e).
T18 construct: marked DE under the bar
T18 peptide: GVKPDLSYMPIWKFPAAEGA
The assay is described as above.

Assay [18] has as its target T19, peptide 38 (FIGURE 3 d/e).
T19 peptide: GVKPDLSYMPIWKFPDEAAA
Described as above.

The target in assay [19] is T20, peptide 39 (FIGURE 3 d/e).
T20 peptide: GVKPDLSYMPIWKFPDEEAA
The assay is described as above.

B1: Oslo-2 antibody (monoclonal antibody against p95HER2) (antibody, V domains shown)
VH: EVQILETGGGLVKPGGSLRLSCATSGFNFNDYFMNWVRQAPGKGLEWIAQIRNKNYNYATYFAESLEGRFTISRDDSKSSVYLQVNSLRAEDTALYYCTELRYDYWGQGVMVTVSS
VL: DIVMTQSPFSLAVSEGEMVTINCKSSQSLLSSGNQKNNLAWYQQKPGQSPKLLIYYASTRQSGVPDRFIGSGSGTDFTLTISDVQAEDLADYYCLQHYSSPYTFGAGTKLELK
notes: Monoclonal antibody from a rat hybridoma (mClone 1), detected with goat anti-rat-PE; also called the antibody of interest; the antibody
Consider B1, for which the binding result is “no binding (tested: 10 µg/ml (not on the sheet))” with full-length HER2; “binds” in assay [2]; “binds” in assay [3]; “binds” in assay [4]; “binds” in assay [5]; “binds” in assay [6]. For the same molecule, the binding result in assay [7] is given as “binds”; in [8], “binds”; in assay [9], “binds”; in assay [10] it was “binds”; in assay [11], “binds”; in [12], “no binding”. Moreover, the binding result is “no binding” in assay [13]; “binds” in assay [14]; “binds” in [15]; “binds” in assay [16]; “binds” in assay [17]; “binds” in assay [18]. The binding result in [19] is “binds”. For the same molecule, binding in assay [1] was put at a Kd of 2 nM.
